Results on 1 variant are retold here after IntAct's records for PubMed 26744420.

First the molecules themselves.
B1: PAX-interacting protein 1 (Mus musculus), Q6NZQ4 (parent)
chain: MSEPAPEVPEELFREVKYYAVGDIDPQVIQLLKAGKAKEVSYNALASHIISEDGDNPEVGEAREVFDLPVVKPSWVTLSVQCGALLPVNGFSPESCQIFFGLTACLSQVSSEDRSALWALVTFHGGSCQLNLNKKCTHLIVPEPKGEKYERAVKRTSIKIVTPDWVLDCVSEKRRKDEAFYHPRLIIYEEEEEEEEEGDNEEQDSQNEGSTEKSSVASSAVASPAEQPCSPKPRAEVSKGELMFDDSSDSSPEKQERSLNWAPAEAPPLNTAQRRLPQGKGPGLINLCANVPPVPGDILPPDMRGNLMAPGQNLQNSERSEILGTWSPAVRTLRNITNNADIQQINRPSNVAHILQSLSAPTKSLEQQVARGQQGHPNASAVLFGQAKGAPETHVLQQHHPPQQPQQQHPALHLQPQIMQLQQQQQQQQQQQQQPQPYPQPPSHQFPQQVHQHQFSQQQLQFPQQPLHPQQQLHRPQQQLQPFQQQHALQQQLHQLQQQQLQHHQLAQLQQQQQQQHNLLQQQQQQQQLQRLQQQQQMQNQAAHLSQASQALQHQVLPQQPLQLSLQPPPQQQQQQQLFGHDPAVEIPEESFLLGCVFAIADYPEQMSDKQLLATWKRIIQAHGGTVDPTFTSRCTHLLCASQVSSMYTQALRERKRCVTAHWLNTVLKKKKLMPPHRALHFPVAFPPGGKPCSQHIISVTGFVDNDRDDLKLMAYLAGAKYTGYLCRSNTVLICKEPSGLKYEKAKEWRIPCVNAQWLGDILLGNFEALRQVQYSRYTAFNMPDPFVPTPHLVLGLLDAWRTPVKVTAELLMGVRLPPKLKPNEVANIQPSSKRARIEDLPPPTKKLTPELTPLVLFTGFEPVQVQQYIKKLYILGGEVAECTKKCTHLIASKVTRTVKFLTAISVVKHIVTPDWLEECFKRQTFIDEQNYILRDAEAEVLFSFSLEESLKRAHVSPLFKTKYFYITPGICPSLATMKAIVECAGGKVLAKQPSFRKLMEHKQNKSLSEIILISCENDLHLCREYFARGIDVHNAEFVLTGVLTQTLDYESYKFN

The variants in the assay derive from B1. The conditions noted are these: with pgr1a_mouse Pagr1a.
W165R: the “effect of a mutation on the interaction” value is “disrupting interaction”.
